Patent US20180244730A1

Experiments:
[1] = molecular target: SnoopCatcher (Streptococcus pneumoniae); assay: time-course of isopeptide bond formation, SDS-PAGE densitometry, 1:1 ratio
[2] = molecular target: SnoopCatcher (Streptococcus pneumoniae); assay: time-course of isopeptide bond formation, SDS-PAGE densitometry, excess of SnoopTag-MBP

Q: What does the source list for SnoopTag-MBP?
A: reaction yield [1]: 80%; percent of SnoopCatcher consumed [2]: 100%
